{"source": "paper doi:10.1101/2021.11.27.470173", "experiment_in_all_cases": "SEC-MALS", "key": {"[1]": {"biological_target": "cyanide dihydratase CynD from Bacillus safensis PER-URP-08 (Bacillus safensis PER-URP-08) (UniProt P0DXY3)"}, "[2]": {"biological_target": "cyanide dihydratase CynD from Bacillus safensis PER-URP-08 (Bacillus safensis PER-URP-08) (UniProt P0DXY3)", "remark": "listed apart in the source"}, "[3]": {"biological_target": "cyanide dihydratase CynD from Bacillus safensis PER-URP-08 (Bacillus safensis PER-URP-08) (UniProt P0DXY3)", "remark": "listed apart in the source"}}, "note": "Where two headings read alike, the source gives them in different places.", "data": [{"substance": "cyanide dihydratase CynD from Bacillus safensis PER-URP-08 (from UniProt P0DXY3 1-330) (enzyme)", "values": [{"measurement": "stoichiometry N", "setting": "[1]", "value": "24 to 48", "unit": "mer"}, {"measurement": "stoichiometry N", "setting": "[2]", "value": "3 to 5", "unit": "mer"}, {"measurement": "stoichiometry N", "setting": "[3]", "value": "4 to 6", "unit": "mer"}]}]}
